Experiments:
[1] = molecular target: FLAGemGFP-tagged eRF3a -N PAM2 (N-terminal PAM2 motif of eRF3a)
[2] = molecular target: FLAGemGFP-tagged eRF3a PAM2 (overlapping N- and C-terminal PAM2 motifs of eukaryotic release factor 3a)
[3] = molecular target: FLAGemGFP-tagged eRF3a -C PAM2 (C-terminal PAM2 motif of eRF3a)
[4] = molecular target: FLAGemGFP-tagged PAIP2 PAM2 (PAM2 motif of PABP-interacting protein 2)
[5] = molecular target: MS2V5-eIF4G 84-295 (eIF4G deletion mutant that only contains the interaction site for PABPC1) (UniProt Q04637)
[6] = molecular target: FLAGemGFP-tagged PAIP2 PAM2 (PAM2 motif of PABP-interacting protein 2); remark: listed apart in the source

Sequence of UniProt Q04637 (Q04637 84-295, stated change not applied): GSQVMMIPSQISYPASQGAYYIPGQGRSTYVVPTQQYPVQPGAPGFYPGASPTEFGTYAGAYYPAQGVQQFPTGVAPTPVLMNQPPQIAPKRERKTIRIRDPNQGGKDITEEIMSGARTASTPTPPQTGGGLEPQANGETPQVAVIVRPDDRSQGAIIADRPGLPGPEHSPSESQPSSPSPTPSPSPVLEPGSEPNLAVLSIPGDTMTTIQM

reporter mRNA level (FLAG-TPI-4MS2-SMG5, Northern blot, HeLa) upon tethering the MS2V5-tagged N-terminal eRF3a PAM2 motif (Fig. 3b) [1]: 5 fold
reporter mRNA level (FLAG-TPI-4MS2-SMG5, Northern blot, HeLa) upon tethering the MS2V5-tagged overlapping eRF3a PAM2 motif, relative to MS2V5-GST (Fig. 3b) [2]: 5 fold
reporter mRNA level (FLAG-TPI-4MS2-SMG5, Northern blot, HeLa) upon tethering the MS2V5-tagged C-terminal eRF3a PAM2 motif (Fig. 3b) [3]: 5 fold
reporter mRNA level (beta-globin 4MS2/4PP7 double tethering reporter, Northern blot, HeLa) upon tethering MS2V5-PAIP2 PAM2 upstream of PP7-tethered BTZ, relative to GST upstream of BTZ (Fig. 5d) [4]: 8 fold
reporter mRNA level (beta-globin 4MS2/4PP7 double tethering reporter, Northern blot, HeLa) upon tethering MS2V5-PAIP2 PAM2 upstream of PP7-tethered RNPS1, relative to GST upstream of RNPS1 (Fig. 5c) [4]: 6 fold
reporter mRNA level (TPI-4MS2 reporter with the SMG5 3' UTR, Northern blot, HeLa) upon tethering MS2V5-eIF4G 84-295, relative to MS2V5-GST [5]: 5 fold
reporter mRNA level (TPI-4MS2 reporter with the SMG5 3' UTR, Northern blot, HeLa) upon tethering MS2V5-PAIP2 PAM2, relative to MS2V5-SYNZIP 1 (Fig. 2c) [6]: 4 fold
Substance: cytoplasmic poly(A)-binding protein (PABPC1) (from UniProt P11940 1-636) (natural protein)
